This passage reports Km results from patent US7485771B2, “Polypeptides and polynucleotides relating to the α- and β-subunits of glutamate dehydrogenases and methods of use” (University of Florida Research Foundation, Inc., priority 1995, dated 2009).

What is called Km is the concentration of substrate that gives half-maximal velocity.

Data set [1] concerns the target T1, Chlorella sorokiniana chloroplastic NADP-specific glutamate dehydrogenase (NADP-GDH) β-homohexamer, native (mature β-subunit SEQ ID NO. 26) (Chlorella sorokiniana, UniProt P28998, E496R/E82D/G270P/L83V).
T1 construct: endogenous in cells; host or cells: Chlorella sorokiniana (UTEX-1230; 3B2NA), cells cultured in 1 mM or 29 mM ammonium medium; enzyme purified from the cells
T1 sequence (P28998 49-523 E82D/L83V/G270P/E496R): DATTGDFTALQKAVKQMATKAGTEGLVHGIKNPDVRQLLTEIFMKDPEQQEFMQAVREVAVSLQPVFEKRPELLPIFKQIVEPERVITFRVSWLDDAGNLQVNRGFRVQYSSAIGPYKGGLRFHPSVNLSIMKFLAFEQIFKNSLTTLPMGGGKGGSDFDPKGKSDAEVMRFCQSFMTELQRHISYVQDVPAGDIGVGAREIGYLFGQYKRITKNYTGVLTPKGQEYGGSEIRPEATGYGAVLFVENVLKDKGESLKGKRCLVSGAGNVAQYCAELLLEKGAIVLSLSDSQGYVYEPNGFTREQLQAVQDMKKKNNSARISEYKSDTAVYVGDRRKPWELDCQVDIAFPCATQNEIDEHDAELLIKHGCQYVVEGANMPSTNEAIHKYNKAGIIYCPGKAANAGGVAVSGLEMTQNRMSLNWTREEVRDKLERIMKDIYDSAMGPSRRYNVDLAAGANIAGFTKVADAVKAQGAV
Kind of data set: Km values, aminating reaction, β-homohexameric isoenzyme. The data set is classed as biochemical. An excerpt:
(§1) The chloroplastic glutamate dehydrogenase α- and β-isoenzymes used in the following experiments are naturally produced by an organism characterized as Chlorella sorokiniana.
(§2) C. sorokiniana culture conditions. For kinetic characterization in both the aminating and deaminating directions, the α- and β-holoenzymes were purified from cells that were accumulating only one form of homohexameric GDH isoenzyme.
(§3) The C. sorokiniana cells (UTEX-1230, University of Texas algal culture collection; 3B2NA, Robert R. Schmidt, University of Florida, Microbiology Cell Science Department) were cultured autotrophically as previously described by Prunkard et al., supra in a modified basal salts medium. […]
(§4) The NADP-GDH β-isoenzyme was purified from a mixture of cells cultured for 240 minutes in 1 mM ammonium medium (14 g), 90 minutes in 1 mM ammonium medium (6 g), and for 20, 40, 60, and 80 minutes in 29 mM ammonium medium (1 g/time point) according to Bascomb and Schmidt, supra. […] The NADP-GDH in the pooled fractions was concentrated via Diaflow ultrafiltration to 2 mg/ml protein, as determined by the method of Bradford (Bradford, M. M. [1976] Anal. Biochem. 72:248-254), and stored at 4° C. until further use. After resolution of the proteins by 8% (w/v) Tris-Tricine SDS-PAGE, the purity of the preparation was determined by silver staining. […]

In data set [2] the target is T2, Chlorella sorokiniana chloroplastic NADP-specific glutamate dehydrogenase (NADP-GDH) α-homohexamer, native (mature α-subunit SEQ ID NO. 24) (Chlorella sorokiniana, UniProt P28998, E496R/E82D/G270P/L83V).
T2 construct: endogenous in cells; host or cells: Chlorella sorokiniana (UTEX-1230; 3B2NA), cultured in 29 mM ammonium medium; enzyme purified from the cells
T2 sequence (P28998 with tags, fused parts or gaps E82D/L83V/G270P/E496R): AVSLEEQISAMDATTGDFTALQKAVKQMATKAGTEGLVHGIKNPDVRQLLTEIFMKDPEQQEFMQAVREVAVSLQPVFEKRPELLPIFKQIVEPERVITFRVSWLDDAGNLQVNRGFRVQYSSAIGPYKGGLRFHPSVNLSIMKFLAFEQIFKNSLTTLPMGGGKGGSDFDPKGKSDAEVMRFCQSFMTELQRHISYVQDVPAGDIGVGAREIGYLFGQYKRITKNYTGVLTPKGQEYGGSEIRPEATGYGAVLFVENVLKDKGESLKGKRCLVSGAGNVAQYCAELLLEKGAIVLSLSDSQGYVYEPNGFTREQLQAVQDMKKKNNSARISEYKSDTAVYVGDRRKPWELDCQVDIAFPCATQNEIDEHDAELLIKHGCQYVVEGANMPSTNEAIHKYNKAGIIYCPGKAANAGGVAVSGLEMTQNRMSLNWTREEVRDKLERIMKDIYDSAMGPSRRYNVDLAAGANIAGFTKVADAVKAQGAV
Kind of data set: Km values, aminating reaction, α-homohexameric isoenzyme. The data set is classed as biochemical. Conditions: NH4^+ range, depending on the NADPH concentration (b9).
From the text: as §1, §2, §3
(§5) For preparative nondenaturing PAGE, a 3 cm tall 7% acrylamide (w/v, 28 acrylamide: 0.735 bis-acrylamide, pH 8.8) resolving gel, and a 2 cm tall 2% acrylamide (w/v, 1.6 acrylamide: 0.4 bis-acrylamide, pH 6.6) stacking gel were cast in the 28 mm ID gel tube of the Model 491 Prep Cell. […] The enzyme in the pooled fractions in 10 mM KPO4 (pH 6.2), 0.1 mM NADP^+ was concentrated by Diaflow ultrafiltration to 1 mg/mL as determined by the method of Bradford, using BSA as a standard. […] The purity of the preparation was determined by silver-staining to visualize proteins resolved by 10% (w/v) Tris-Tricine SDS-PAGE (Schagger, H., G. von Jagow [1987] Anal. Biochem. 166:368-379). […]

In data set [3] the target is T1, Chlorella sorokiniana chloroplastic NADP-specific glutamate dehydrogenase (NADP-GDH) β-homohexamer, native (mature β-subunit SEQ ID NO. 26). Conditions: β-homohexamer purified from Chlorella cells (catabolic form), non-allosteric; read-out: ammonium Km; cited from earlier work.
Substrate in data set [4]: N[C@@H](CCC(=O)O)C(=O)O
Kind of data set: Km values, deaminating reaction, β-homohexameric isoenzyme. It is filed as biochemical, Chlorella sorokiniana. Conditions: other: β-homohexamer, 38.5 °C.
From the text: as §1, §2, §3, §4

Substrate in data set [5]: NC(=O)c1ccc[n+]([C@@H]2O[C@H](COP(=O)([O-])OP(=O)(O)OC[C@H]3O[C@@H](n4cnc5c(N)ncnc54)[C@H](OP(=O)(O)O)[C@@H]3O)[C@@H](O)[C@H]2O)c1
The description is as above. The data set is classed as biochemical, Chlorella sorokiniana. Conditions: other: β-homohexamer, 38.5 °C.
From the text: as §1, §2, §3, §4

Substrate in data set [6]: NC(=O)C1=CN([C@@H]2O[C@H](COP(=O)(O)OP(=O)(O)OC[C@H]3O[C@@H](n4cnc5c(N)ncnc54)[C@H](OP(=O)(O)O)[C@@H]3O)[C@@H](O)[C@H]2O)C=CC1
Kind of data set: Km values, aminating reaction, β-homohexameric isoenzyme. It is filed as biochemical, Chlorella sorokiniana. Conditions: other: β-homohexamer, 38.5 °C.
From the text: as §1, §2, §3, §4

Substrate in data set [7]: O=C(O)CCC(=O)C(=O)O
Kind of data set: purified protein, by the assay type. Conditions: other: β-homohexamer, aminating reaction; 38.5 °C.

Substrate in data set [8]: NC(=O)C1=CN([C@@H]2O[C@H](COP(=O)(O)OP(=O)(O)OC[C@H]3O[C@@H](n4cnc5c(N)ncnc54)[C@H](OP(=O)(O)O)[C@@H]3O)[C@@H](O)[C@H]2O)C=CC1
Nature of the data set: Km values, aminating reaction, α-homohexameric isoenzyme. It is filed as biochemical, Chlorella sorokiniana. Conditions: other: α-homohexamer, 38.5 °C.
From the text: as §1, §2, §3, §5

Substrate in data set [9]: N[C@@H](CCC(=O)O)C(=O)O
Nature of the data set: Km values, deaminating reaction, α-homohexameric isoenzyme. It is filed as biochemical, Chlorella sorokiniana. Conditions: other: α-homohexamer, 38.5 °C.
From the text: as §1, §2, §3, §5

Substrate in data set [10]: NC(=O)c1ccc[n+]([C@@H]2O[C@H](COP(=O)([O-])OP(=O)(O)OC[C@H]3O[C@@H](n4cnc5c(N)ncnc54)[C@H](OP(=O)(O)O)[C@@H]3O)[C@@H](O)[C@H]2O)c1
Described as above. The data set is classed as biochemical, Chlorella sorokiniana. Conditions: other: α-homohexamer, 38.5 °C.
From the text: as §1, §2, §3, §5

Where two headings read alike, the source gives them in different places.

As for `N` [NH4^+, ammonium], the Michaelis-Menten constant (Km) in data set [1] was 77 mM; in data set [2], 0.02 to 3.5 mM; in data set [3], around 75 mM.

B1: Chlorella sorokiniana chloroplastic NADP-specific glutamate dehydrogenase (NADP-GDH) β-homohexamer, native (mature β-subunit SEQ ID NO. 26) (Chlorella … (protein)
chain: DATTGDFTALQKAVKQMATKAGTEGLVHGIKNPDVRQLLTEIFMKDPEQQEFMQAVREVAVSLQPVFEKRPELLPIFKQIVEPERVITFRVSWLDDAGNLQVNRGFRVQYSSAIGPYKGGLRFHPSVNLSIMKFLAFEQIFKNSLTTLPMGGGKGGSDFDPKGKSDAEVMRFCQSFMTELQRHISYVQDVPAGDIGVGAREIGYLFGQYKRITKNYTGVLTPKGQEYGGSEIRPEATGYGAVLFVENVLKDKGESLKGKRCLVSGAGNVAQYCAELLLEKGAIVLSLSDSQGYVYEPNGFTREQLQAVQDMKKKNNSARISEYKSDTAVYVGDRRKPWELDCQVDIAFPCATQNEIDEHDAELLIKHGCQYVVEGANMPSTNEAIHKYNKAGIIYCPGKAANAGGVAVSGLEMTQNRMSLNWTREEVRDKLERIMKDIYDSAMGPSRRYNVDLAAGANIAGFTKVADAVKAQGAV
notes: endogenous in cells; host or cells: Chlorella sorokiniana (UTEX-1230; 3B2NA), cells cultured in 1 mM or 29 mM ammonium medium; enzyme purified from the cells
For the molecule B1, the Km in [4] stood at 32.3 mM; in [5] it was 0.04 mM; in data set [6], 0.14 mM; in data set [7] it was 12 mM.

B2: Chlorella sorokiniana chloroplastic NADP-specific glutamate dehydrogenase (NADP-GDH) α-homohexamer, native (mature α-subunit SEQ ID NO. 24) (Chlorella … (protein)
chain: AVSLEEQISAMDATTGDFTALQKAVKQMATKAGTEGLVHGIKNPDVRQLLTEIFMKDPEQQEFMQAVREVAVSLQPVFEKRPELLPIFKQIVEPERVITFRVSWLDDAGNLQVNRGFRVQYSSAIGPYKGGLRFHPSVNLSIMKFLAFEQIFKNSLTTLPMGGGKGGSDFDPKGKSDAEVMRFCQSFMTELQRHISYVQDVPAGDIGVGAREIGYLFGQYKRITKNYTGVLTPKGQEYGGSEIRPEATGYGAVLFVENVLKDKGESLKGKRCLVSGAGNVAQYCAELLLEKGAIVLSLSDSQGYVYEPNGFTREQLQAVQDMKKKNNSARISEYKSDTAVYVGDRRKPWELDCQVDIAFPCATQNEIDEHDAELLIKHGCQYVVEGANMPSTNEAIHKYNKAGIIYCPGKAANAGGVAVSGLEMTQNRMSLNWTREEVRDKLERIMKDIYDSAMGPSRRYNVDLAAGANIAGFTKVADAVKAQGAV
notes: endogenous in cells; host or cells: Chlorella sorokiniana (UTEX-1230; 3B2NA), cultured in 29 mM ammonium medium; enzyme purified from the cells
Consider B2, for which the values for the Michaelis constant (Km) in data set [8], in data set [9] and in [10] were 0.14 mM, 38.2 mM and 0.04 mM, respectively.
